Earlier results, collected in PMC9152818.
Read-outs that look alike come from different tables or passages of the source.

Assays:
[1] = biological target: spike protein CendR peptide CendR peptide (SARS-CoV-2) (UniProt P0DTC2)
[2] = biological target: spike protein RBD (SARS-CoV-2) (UniProt P0DTC2)
[3] = biological target: spike protein (SARS-CoV-2) (UniProt P0DTC2)
[4] = biological target: spike protein RBD (SARS-CoV-2) (UniProt P0DTC2); remark: listed apart in the source
[5] = biological target: spike protein RBD (SARS-CoV-2) (UniProt P0DTC2); remark: listed apart in the source

Neuropilin-1 (from UniProt O14786)
Kd [1]: 20000 nM

ASGR1 (from UniProt P07306)
Kd [2]: 95 nM

AXL (from UniProt P30530)
Kd [3]: 1000 nM

soluble trimeric ACE2 (from UniProt Q9BYF1)
Kd [4]: < 1 nM

Kremen1 (from UniProt Q96MU8)
Kd [5]: 20 nM
